Biological target: T1, 3 × FLAG-aPKC (atypical protein kinase C subtype iota, PKCι), wild type, full length (Homo sapiens (Human), UniProt P41743)
T1 chain: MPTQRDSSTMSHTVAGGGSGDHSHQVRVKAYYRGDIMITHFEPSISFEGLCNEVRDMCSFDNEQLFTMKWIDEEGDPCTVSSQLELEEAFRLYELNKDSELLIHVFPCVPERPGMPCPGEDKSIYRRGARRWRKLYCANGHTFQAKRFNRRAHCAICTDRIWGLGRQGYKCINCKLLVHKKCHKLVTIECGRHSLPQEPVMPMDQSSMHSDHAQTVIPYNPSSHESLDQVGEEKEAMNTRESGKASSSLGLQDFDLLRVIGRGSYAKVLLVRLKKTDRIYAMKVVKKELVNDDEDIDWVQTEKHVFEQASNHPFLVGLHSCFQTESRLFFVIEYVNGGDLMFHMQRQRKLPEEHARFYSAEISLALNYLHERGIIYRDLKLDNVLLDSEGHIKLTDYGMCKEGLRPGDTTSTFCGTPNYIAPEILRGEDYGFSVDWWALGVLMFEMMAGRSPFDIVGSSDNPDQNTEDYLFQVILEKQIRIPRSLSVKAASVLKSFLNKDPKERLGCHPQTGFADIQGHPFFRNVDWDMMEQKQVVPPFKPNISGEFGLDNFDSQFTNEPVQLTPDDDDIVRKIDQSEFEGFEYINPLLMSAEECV
Assay: co-expression, FLAG co-purification, SEC and glycerol gradient

B1: PAR6 (PAR6α), untagged, full length (protein)
chain: MARPQRTPARSPDSIVEVKSKFDAEFRRFALPRASVSGFQEFSRLLRAVHQIPGLDVLLGYTDAHGDLLPLTNDDSLHRALASGPPPLRLLVQKREADSSGLAFASNSLQRRKKGLLLRPVAPLRTRPPLLISLPQDFRQVSSVIDVDLLPETHRRVRLHKHGSDRPLGFYIRDGMSVRVAPQGLERVPGIFISRLVRGGLAESTGLLAVSDEILEVNGIEVAGKTLDQVTDMMVANSHNLIVTVKPANQRNNVVRGASGRLTGPPSAGPGPAEPDSDDDSSDLVIENRQPPSSNGLSQGPPCWDLHPGCRHPGTRSSLPSLDDQEQASSGWGSRIRGDGSGFSL
binding result: binds
